Molecular target: 重组蛋白SUMO-IgT CH1-CH2 (recombinant grass carp IgT heavy chain constant region CH1-CH2 domains fused to SUMO, from E. coli) (草鱼 (Ctenopharyngodon idella))
Experiment: titre of the antibody purified from ascites; assay not given, taken as ELISA on SUMO-IgT CH1-CH2

效价 (titre) (dilution (1:x)): 64000
B1: 鼠抗草鱼IgT单克隆抗体 (mouse anti-grass carp IgT monoclonal antibody, secreted by hybridoma cell line IgT-6H6G11, CCTCC NO: C202288) (antibody, IgG2a, V domains shown)
VH: QVQLVETGGGLVRPGNSLKLSCVTSGFTFSNYRMHWLRQPPGKRLEWIAVITVKSDNYRARYAESVKGRFTISRDDSKSSVYLQMNRLREEDTATYFCSREGPYYGNWVAMDYWGQGTSVTVSS
VL: DVVLTQSPATLSVTPGDRVSLSCRASQSISNYLHWYQQKSHESPRLLIKYASQSISGIPSRFSGSGSGTGFTLSINSVETEDFGMYFCQQSHSWPYTFGGGTKLEIK

From patent CN116041526A
